For series [1] the following is noted: in vivo; cited from earlier work.
The nature of series [2]: covalently linked oligomers by size exclusion HPLC (peak area %). Type of series: physicochemical. The conditions noted are these: for Covalently linked oligomers: 24 months at 2-8° C., 230 mM mannitol, 15 mM histidine, pH 7. The method, then:
As shown in the examples, this amount of covalently bonded oligomers can be determined using size exclusion chromatography and determining the area under the peaks for monomeric GLP-2 analogue and oligomers respectively. This can be done using a Dionex Ultimate3000 HPLC system, giving a linear gradient, at a flow rate of 0.5 mL/min was used for the analysis. The mobile phase consisted of 0.1% TFA in 45% acetonitrile and 55% Milli-Q water. A wavelength of 215 nm was used for detection. This means that the formulations of the present invention generally contain the GLP-2 analogue at a concentration of about 2 mg/mL to about 30 mg/mL, more preferably at a concentration of about 15 mg/mL to about 25 mg/mL, and most preferably at a concentration of about 20 mg/mL. In some aspects of the present invention, it is preferred that the concentration of the GLP-2 analogue is selected so that the formulation contains 10% or less, more preferably 5% or less, more preferably 4% or less, more preferably 3% or less, and more preferably 2% or less of the GLP-2 analogue in the form of covalently bonded oligomeric products, preferably after 18 months storage. By way of illustration, the amount of covalently bonded oligomeric product may be in the range of between 2% to 5%, more preferably in the range of between 2% to 4%, and most preferably in the range of between 2% to 3%.
For detection of covalently linked oligomers, a Dionex Ultimate3000 HPLC system, giving a linear gradient, at a flow rate of 0.5 mL/min was used for the analysis. The mobile phase consisted of 0.1% TFA in 45% acetonitrile and 55% Milli-Q water. A wavelength of 215 nm was used for detection. The injection amount was 4 μg of peptide. The column used for the separation of the covalently formed peptides was a TSKgel SuperSW2000 (TSK BioScience) with a 4 μm particle size and dimensions of 300*4.6 mm. The overall runtime was 25 minutes. For chemical stability evaluation of the peptide monomer a C18 column with an acidic mobile phase and an acetonitrile gradient was used.
Stock solutions of mannitol (700 mM), L-histidine (200 mM) and ZP1848 peptide (acetate salt; 60 mg/mL) in water (Milli-Q) were prepared. Mannitol and histidine solutions were mixed in amounts appropriate to give 230 mM mannitol and 15 mM histidine. Peptide stock solution was added to a final concentration of 0.2, 2 and 20 mg/mL, respectively. Water was added up to 90% of final volume. If necessary, pH was adjusted to pH 7 using 1 M acetic acid/0.5 M L-arginine. Water was added up to the final volume.
The oligomers of ZP1848-acetate are well separated from the ZP1848-acetate monomer and are all integrated as one peak. The area percentage of the peaks was used to quantify the amount of oligomers, in particular covalently linked dimers and trimers. […]
(§1) Stock solutions of mannitol (700 mM), histidine (200 mM) and ZP1848 peptide solution (acetate salt; approx. 50 mg/mL) in Milli-Q water were prepared. Final concentration of peptide was 20 mg/mL, mannitol 230 mM, histidine 15 mM. Peptide stock solution was added to give the desired final peptide content. Water was added up to 90% of final volume. If necessary, pH was then adjusted to the desired formulation pH using 1 M acetic acid/0.5 M L-arginine. Water was added up to the final volume. Each formulation was filled in vials. Sample containers were visually inspected for clarity and viscosity and analysed for covalently linked oligomers by SEC, and peptide monomer stability by HPLC.
For orientation: In gel filtration, larger molecules generally elute earlier.

The nature of series [3]: visual inspection for clarity and viscosity. The class given is physicochemical. The conditions noted are these: 20 mg/mL; for Visual inspection Clear and non-viscous?: mannitol 230 mM, 24 hours at room temperature. The method, then: Stock solutions of mannitol (700 mM), phosphate buffer (200 mM) and ZP1848-acetate peptide (60.2 mg/mL) in water (Milli-Q) were prepared. Water was added up to 90% of final volume. If necessary, pH was then adjusted to the desired formulation pH using 1 M acetic acid/0.5 M L-arginine. Water was added up to the final volume. Sample containers were visually inspected for clarity and viscosity after 24 hours at room temperature.
Vials were visually inspected for clarity and viscosity. The viscosity was measured using a microVISC™ viscosimeter. The hydrodynamic radius was measured using a Wyatt DynaPro II Dynamic Light Scattering (DLS) Platereader. The sample size loaded on the plates was 170 μl. […]
as §1
Stock solutions of mannitol (700 mM), histidine (200 mM), and ZP1848 peptide solution (acetate salt; approx. 50 mg/mL) in Milli-Q water were prepared. Final concentration of peptide was 20 and 2 mg/mL, mannitol 230 mM, and histidine 15 mM. Water was added up to 90% of final volume. If necessary, pH was then adjusted to the desired formulation pH (7.0) using 1 M acetic acid/0.5 M L-arginine. Water was added up to the final volume. Each formulation was filled in vials. Sample containers were visually inspected for clarity and viscosity and analysed for peptide monomer stability by HPLC.

A short description of series [4]: viscosity measured with microVISC viscosimeter. The class given is physicochemical. The conditions noted are these: 20 mg/ml ZP1848-acetate, pH 7, acetate 6-15% (FIG. 2). Here is the method:
In the examples below, the viscosity of the liquid formulations of the present invention is shown to be dependent on the total acetate concentration. Preferably, the formulations have a viscosity between 0.8 and 2.0 mPa/sec as measured at 25° C. Conveniently, the viscosity may be measured by using microVISC™. In parallel, the hydrodynamic radius may be measured using a Dynamic Light Scattering, DLS, Platereader (Wyatt DynaPro II). Samples were prepared having a drug substance (DS) of the GLP-2analogue containing 6% acetate and to mimic DS having 7.8-15% acetate, then acetate was added. Data from manufacturing formulations having varied the acetate concentration from 6.7-15% is shown below in FIG. 2. The effect of controlling the total acetate concentration is that the injectability of formulations of the present invention can be modulated, for example by reducing the total acetate concentration to provide a less viscous formulation that may be more easily injected.
Samples were prepared using a drug substance (DS) of the GLP-2 analogue ZP1848-acetate containing 6% acetate. […]
Vials were visually inspected for clarity and viscosity. The viscosity was measured using a microVISC™ viscosimeter. The hydrodynamic radius was measured using a Wyatt DynaPro II Dynamic Light Scattering (DLS) Platereader. […]

Take `CC[C@H](C)[C@H](NC(=O)[C@H](Cc1ccccc1)NC(=O)[C@H](CC(=O)O)NC(=O)[C@H](CCCNC(=N)N)NC(=O)[C@H](C)NC(=O)[C@H](C)NC(=O)[C@H](CC(C)C)NC(=O)[C@H](CC(N)=O)NC(=O)[C@H](CC(=O)O)NC(=O)[C@H](CC(C)C)NC(=O)[C@@H](NC(=O)[C@@H](NC(=O)[C@H](CC(N)=O)NC(=O)[C@H](CCSC)NC(=O)[C@H](CCC(=O)O)NC(=O)[C@H](CC(=O)O)NC(=O)[C@H](CO)NC(=O)[C@H](Cc1ccccc1)NC(=O)[C@H](CO)NC(=O)CNC(=O)[C@H](CC(=O)O)NC(=O)CNC(=O)[C@@H](N)Cc1c[nH]cn1)[C@@H](C)O)[C@@H](C)CC)C(=O)N[C@@H](CC(N)=O)C(=O)N[C@@H](Cc1c[nH]c2ccccc12)C(=O)N[C@@H](CC(C)C)C(=O)N[C@H](C(=O)N[C@@H](CCC(N)=O)C(=O)N[C@H](C(=O)N[C@@H](CCCCN)C(=O)N[C@H](C(=O)N[C@H](C(=O)N[C@@H](CC(=O)O)C(=O)O)[C@@H](C)O)[C@@H](C)CC)[C@@H](C)O)[C@@H](C)CC` [teduglutide]: the half-life result in series [1] is recorded as “about two”.
In series [2] (2 mg/mL), “H-HGEGTFSSELATILDALAARDFIAWLIATKITDKKKKKK-NH2 [ZP1848]” gave a Covalently linked oligomers of 1.91%. The “initial value of the amount of oligomer” value in series [2] (initial, before storage) was “less than 0.1%”. The “Visual inspection Clear and non-viscous?” value is on record as “No” in series [3] (pH 6.5, phosphate 20 mM); “No” in series [3] (pH 7.0, phosphate 20 mM); “No” in series [3] (pH 7.0, phosphate 50 mM); “No” in series [3] (pH 7.5, phosphate 20 mM).
With “(H-HGEGTFSSELATILDALAARDFIAWLIATKITDKKKKKK-NH2), x(CH3COOH) (also: acetate salt) [ZP1848-acetate]”, the Covalently linked oligomers in series [2] (0.2 mg/mL) was 2.60%; in series [2] (20 mg/mL), 1.35%. Moreover, the “formation of covalent oligomers, increase per week” value is 0.27% in series [2] (2 mg/mL, 3 weeks at 40° C.) and 0.21% in series [2] (20 mg/mL, 3 weeks at 40° C.). For the same compound, the “formation of covalent oligomers” value in series [2] (2 mg/mL, after 3 weeks at 40° C.) is 1.2%; in series [2] (20 mg/mL, after 3 weeks at 40° C.) it was 0.9%; in series [2] (sorbitol, 3 weeks at 40° C.), 1.1%. Further, the “concentration dependence for oligomer formation” value in series [2] (long term storage at 2-8° C.) was “inversely dependent on increasing concentration of the GLP-2 analogue”. For the same compound, in series [3] (pH 6.5-7.5, 20-50 mM phosphate buffer, 24 hrs at room temperature), the Visual inspection result was “turbid and/or highly viscous”. Besides, in series [4], the “viscosity as a function of acetate concentration” value is on record as “increases in a non-linear manner at higher acetate concentration”.

The values above are taken from patent publication US20240065978A1, “FORMULATIONS OF GLUCAGON-LIKE-PEPTIDE-2 (GLP-2) ANALOGUES” (Zealand Pharma A/S, priority 2018, published 2024).
